From paper PMC7997955 (2021)

Molecular target: Full-length human AURKA^T288V (human, UniProt O14965 1-403, T288V)
Test: FP; competition with FITC-Tpx2 1-43

Chain of Full-length human AURKA^T288V (O14965 other isoform, or with tags, fused parts or gaps T288V | T288V): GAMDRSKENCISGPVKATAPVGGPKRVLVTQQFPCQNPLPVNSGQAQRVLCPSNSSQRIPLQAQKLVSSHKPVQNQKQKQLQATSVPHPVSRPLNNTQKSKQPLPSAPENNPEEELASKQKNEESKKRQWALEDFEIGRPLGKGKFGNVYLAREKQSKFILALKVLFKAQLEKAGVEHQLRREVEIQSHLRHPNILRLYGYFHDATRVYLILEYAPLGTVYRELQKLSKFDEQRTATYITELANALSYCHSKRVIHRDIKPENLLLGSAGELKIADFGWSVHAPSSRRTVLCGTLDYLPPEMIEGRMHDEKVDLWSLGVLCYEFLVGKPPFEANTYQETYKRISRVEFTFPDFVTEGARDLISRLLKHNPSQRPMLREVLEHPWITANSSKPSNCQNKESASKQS

IC50: 680 nM
B1: pBora^18–120 (domain or fragment)
chain: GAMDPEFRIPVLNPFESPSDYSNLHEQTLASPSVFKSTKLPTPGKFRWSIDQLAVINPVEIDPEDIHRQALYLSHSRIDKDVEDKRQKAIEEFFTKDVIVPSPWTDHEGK
modifications: phosphorylated (kinase and sites not stated for the fluorescence polarisation assay)
